The supplement of paper PMC9170038

Tested on: MS2 coat protein
Test: apparent KD of MS2 coat protein; higher = weaker reporter binding
Conditions: Eterna round: R107
Outline: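 Each design's apparent KD comes from the median of binding-curve fits to its normalised clusters. Those clusters carried RNA switches transcribed on-chip from Illumina sequencing clusters. SNAP-549-labelled MS2 coat protein was titrated onto them in twofold steps (0.7 or 1.5 nM to 3 µM; per step 0.8–1.5 h down to 10–20 min). Conditions were 100 mM Tris-HCl pH 7.5, 80 mM KCl, 4 mM MgCl2, without or with constant ligand.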

[1] = input ligand: theophylline 20 uM
[2] = input ligand: tryptophan 2.4 mM
[3] = input ligand: theophylline 2 mM

Row | Sequence | apparent KD of MS2 coat protein (input ligand: arginine 13.2 mM) | apparent KD of MS2 coat protein [1] | apparent KD of MS2 coat protein [2] | apparent KD of MS2 coat protein (input ligand: none) | apparent KD of MS2 coat protein [3]
1 | CUCGAGGCCGGUGAUACCAGACACGAAACUAUACAUGAGGAUCACCCAUGUCAAACAACGGUCCCUUGGCAGCAUGGGUGUAUCC [Enzabemage] | 26.9 nM | 131 nM | 33.3 nM | – | –
2 | GGGCGACAUGAGGAUCACCCAUGUGUCGAUACCAGUAUGAAUUUCUACCCUUGGCAGCGACGACACGGUUAUUUGUGCACUUCGA [theeternabot_sameState_MS2_Theo_A_5] | 77.5 nM | 114 nM | 95.6 nM | – | –
3 | AGUUAUUUCCGAAGGAGCGUUAUACAUGAGGAUCACCCAUGUACAUGAGGUUCAACAUGAAAACAGGUAGGUCGCGGAUUUUGUC [Exclusion Arginine B4] | 15.6 nM | 27.6 nM | 14.2 nM | 19.2 nM | 29 nM
4 | AACAUACAAUAUUAGGUGGAUAUAAGGCGGCGAGGACCGGUACGGCCGCCACUCGCGUACAUGAGGAUCACCCAUGUCUGAAACU [Same State - Tryptophan A (Freestyle 4)] | 16.6 nM | 26.8 nM | – | – | 24.3 nM
5 | UAUAUAUAUAUUGAUACCAGCAGAGAAAACGUAUAUCCUAACAUGAGGAUCACCCAUGUAUGCCCUUGGCAGCGAUAUAUAUAUA [8.B] | 21.2 nM | 31 nM | 24.9 nM | – | –
6 | UUACAACUAAUGGAUACCAGCCGCGUGCUAGUGGUAGCAUACAUGAGGAUCACCCAUGUCGGCCCUUGGCAGCCACGCCCAUGCU [theeternabot_exclusion_MS2_Theo_B_2] | 13.7 nM | 21.7 nM | 14.2 nM | – | –
7 | GUACCGUAAACGGCCGCCACUGACAUGAGGAUCACCCAUGUGCUGGUGGUGCACAACCUCAGGUUCAGGACCGGGUUUCCGAGCU [theeternabot_exclusion_MS2_Trp_B_50] | 23 nM | 45.3 nM | – | – | 32.2 nM
8 | GGUGGCGGGACUGAUACCAGCCACCACCGAUAGACCACAUGAGGAUCACCCAUGUUGGGUGGCCCUUGGCAGCAGUCUUGCGUCG [#1 Same State - Theophylline B Attempt #16 (HarryS)] | 35.9 nM | 92.9 nM | 323 nM | 149 nM | 21 nM
9 | GACCUUAUCUGAAGGAGCGAGGUAAAUAGGGAUGAGCAUACAUGAGGAUCACCCAUGUGGCCUCAGGUAGGUCGCAGAUGAGAUU [Exclusion Arginine B GF27] | 77.5 nM | 155 nM | 105 nM | 113 nM | 149 nM
10 | AUAAGUACGUCAGAUACCAGACAGCCAGACUUACAUGAGGAUCACCCAUGUGGAUGGACGGUCCCUUGGCAGCUGGCCGCAAAAG [Isedgeor] | 172 nM | 128 nM | 216 nM | – | –
11 | ACAUGAGGAUCACCCAUGUCAAGGCACGAUACCAGCUGAUCCGGUGGCCCUUGGCAGCGUCACGUUUGGUCCCGCGGAUGACACG [p'pmullin] | 32.1 nM | 139 nM | 106 nM | – | –
12 | ACAUGAGGAUCACCCAUGUAAUAAGGAGAAGGAGCGCGUAAGGACGCAGGUAGGUCGCUCGUGGUCCGGCCGCAAGGCCGGACCA [#1 Same State - Arginine A Attempt #8 (HarryS)] | 4.83 nM | 15.4 nM | 9.31 nM | 11.2 nM | 8.04 nM
13 | GUUGGAUUUUCGGCCGCCACUGAGAGAGUCAUGUGAACAUGAGGAUCACCCAUGUAAUAUAUAUACAGGACCGGGAGGGUUGUAA [4.L] | 35 nM | 26.3 nM | 13.5 nM | 14.6 nM | 18.6 nM
14 | AGAUUACAUGUUUUAAUACGGAAAACUGAUACCAGUGUAUCUAUUCACCCUUGGCAGCAGCAACAUGAGGAUCACCCAUGUAUUA [JR_SSTheophyA_Sub016] | 17.9 nM | 21.5 nM | 20 nM | – | –
15 | ACAUUUAACUGAAGGAGCGUGAUAUUUACAUGAGGAUCACCCAUGUCUAUCAUGAGAUAUUCACAGGUAGGUCGCAGACUAAUGA [JR_ExcArginiB_Sub005] | 38.9 nM | 40.9 nM | 29.4 nM | 26.7 nM | 46.9 nM
